These results are taken from PMC3756911 (Nature, 2013).

Sequences and labels used below:
B2: hnRNPA1-D262N (full-length) (natural protein)
chain: MSKSESPKEPEQLRKLFIGGLSFETTDESLRSHFEQWGTLTDCVVMRDPNTKRSRGFGFVTYATVEEVDAAMNARPHKVDGRVVEPKRAVSREDSQRPGAHLTVKKIFVGGIKEDTEEHHLRDYFEQYGKIEVIEIMTDRGSGKKRGFAFVTFDDHDSVDKIVIQKYHTVNGHNCEVRKALSKQEMASASSSQRGRSGSGNFGGGRGGGFGGNDNFGRGGNFSGRGGFGGSRGGGGYGGSGDGYNGFGNDGSNFGGGGSYNNFGNYNNQSSNFGPMKGGNFGGRSSGPYGGGGQYFAKPRNQGGYGGSSSSSSYGSGRRF

For data set [1], the target named is hnRNPA1-D262V (full-length) (human, UniProt P09651-2 1-320, D262V). The data set can be described thus: cross-seeded fibrillization, sedimentation analysis.
The target of data set [2] is B2. The data set is described as above.
Data set [3] deals with the molecule itself. The data set can be described thus: seeded fibrillization, sedimentation analysis.
Data set [4] deals with the molecule itself. The data set can be described thus: thioflavin-T fluorescence + electron microscopy.
In data set [5] the target is hnRNPA2 D290V (full-length) (human, UniProt P22626-2 1-341, D290V). The data set can be described thus: cross-seeded fibrillization, sedimentation analysis.

B1: hnRNPA1 wild-type (full-length) (natural protein)
chain: MSKSESPKEPEQLRKLFIGGLSFETTDESLRSHFEQWGTLTDCVVMRDPNTKRSRGFGFVTYATVEEVDAAMNARPHKVDGRVVEPKRAVSREDSQRPGAHLTVKKIFVGGIKEDTEEHHLRDYFEQYGKIEVIEIMTDRGSGKKRGFAFVTFDDHDSVDKIVIQKYHTVNGHNCEVRKALSKQEMASASSSQRGRSGSGNFGGGRGGGFGGNDNFGRGGNFSGRGGFGGSRGGGGYGGSGDGYNGFGNDGSNFGGGGSYNDFGNYNNQSSNFGPMKGGNFGGRSSGPYGGGGQYFAKPRNQGGYGGSSSSSSYGSGRRF
With B1, the binding result in data set [1] and in data set [2] was “binds” throughout.
As for B2, in data set [3], the binding result was “binds”.

B3: A2 D290V hexapeptide (NYNVFG) (peptide)
peptide: NYNVFG
As to B3, in data set [4], the binding result is recorded as “binds”.

B4: hnRNPA2 wild-type (full-length) (natural protein)
chain: MEREKEQFRKLFIGGLSFETTEESLRNYYEQWGKLTDCVVMRDPASKRSRGFGFVTFSSMAEVDAAMAARPHSIDGRVVEPKRAVAREESGKPGAHVTVKKLFVGGIKEDTEEHHLRDYFEEYGKIDTIEIITDRQSGKKRGFGFVTFDDHDPVDKIVLQKYHTINGHNAEVRKALSRQEMQEVQSSRSGRGGNFGFGDSRGGGGNFGPGPGSNFRGGSDGYGSGRGFGDGYNGYGGGPGGGNFGGSPGYGGGRGGYGGGGPGYGNQGGGYGGGYDNYGGGNYGSGNYNDFGNYNQQPSNYGPMKSGNFGGSRNMGGPYGGGNYGPGGSGGSGGYGGRSRY
For the molecule B4, the binding result in data set [5] was “binds”.
